B1: Arabinogalactan endo-beta-1,4-galactanase, P48842 (parent)
chain: MFASLLLAALPLLTHAALTYRGADISSLLLLEDEGYSYKNLNGQTQALETILADAGINSIRQRVWVNPSDGSYDLDYNLELAKRVKAAGMSLYLDLHLSDTWADPSDQTTPSGWSTTDLGTLKWQLYNYTLEVCNTFAENDIDIEIISIGNEIRAGLLWPLGETSSYSNIGALLHSGAWGVKDSNLATTPKIMIHLDDGWSWDQQNYFYETVLATGELLSTDFDYFGVSYYPFYSASATLASLKTSLANLQSTYDKPVVVVETNWPVSCPNPAYAFPSDLSSIPFSVAGQQEFLEKLAAVVEATTDGLGVYYWEPAWIGNAGLGSSCADNLMVDYTTDEVYESIETLGEL

Variants of: B1
Conditions: Aspergillus aculeatus; pH 4.5; Thermal; DSC; sodium acetate buffer 50 mM; transition: 2; reversible: no; structure 1FHL; whole UniProt chain shown

Variant | Tm [°C] | change of melting temperature, mutant - wild type (higher = more stable) [°C]
G120D A172R | 60.7 | -0.18
G322A | 62 | 1.1
D74N | 61.5 | 0.65
Y311F | 61.2 | 0.34
D198N | 61.4 | 0.53
S201D Q204T | 61 | 0.11

— FireProtDB (doi:10.1016/j.csbj.2015.03.010)
